The source of these data is patent publication US20160040149A1, “Compositions Having Dicamba Decarboxylase Activity and Methods of Use” (priority 2013, published 2016).

B1: 583 (protein)
chain: MAQGKVALEEHFAIPETLQDAAGFVPGDYWKELQHRLLDIQDTRLKEMDKHEIGTMILSLAAPAVQGIPDRRKAIELAKRANDFLAEEVAKRPDRFLAFAALPLQDPEAATEELQRCVNDLGFVGAMVNGFSQEGDGQTPLYYDLPQYRPFWKEVEKLDVPFYLHPRNPLPQDSRIYDGHPWLLGPTWAFAQETAVHALRLMASGLFDEHPRLNIILGHLGEGLPYMMYRIDHRIAWVKAPPRYPAKRRFMDYFLENFWITTSGNFRTQTLIDAILEIGADRILFSTDWPFENIDHAADWFAATSIAEADRVKIGRTNARRLFKLDVR
modifications: Dicamba decarboxylase variant
B2: 586 (protein)
chain: B1 chain with K5L, I57V, G67A, K79R, P107V, E108D, K239H, R243D, W259H, A302N
modifications: Dicamba decarboxylase variant
B3: 584 (protein)
chain: MAQGKVALEEHFAIPETLNDAAGFVPGDYWKELQHRLLDIQDTRLKEMDKHGIGTMILSLAAPAVQGIVDRRQAIEIAKRANDFLAEEVAKRPDRFLAFAALPLQDPDAATSELQRCVADLGFVGAMVNGFSQEGDGQTPLYYDLPQYRPFWKEVEKLDVPFYLHPRNPLPQDARIYDGHPWLLGPTWAFAQETAVHALRLMASGLFDEHPRLNIILGHMGEGLPYMMYRIDHRIAWVKAPPDYPAKRRFMDYFLENFHITTSGNFRTQTLIDAILEIGADRILFSTDWPFENIDHAADWFAATSIAEADRVKIGRTNARRLFKLDVR
modifications: Dicamba decarboxylase variant
B4: 580 (protein)
chain: MAQGLVALEEHFAIPETLNDAAGFVPGDYWKELQHRLLDIQDTRLKEMDKHEIGTMVLSLAAPAVQAIPDRRQAIELARRANDFLAEEVAKRPDRFLAFAALPLQDPDAATEELQRCVADLGFVGAMVNGFSQEGDGQTPLYYDLPQYRPFWGEVEKLDVPFYLHPRNPLPQDARIYDGHPWLLGPTWAFAQETAVHALRLMASGLFDEHPRLNIILGHMGEGLPYMMYRIDHRIAWVKAPPRYPAKRRFMDYFLENFHITTSGNFRTQTLIDAILEIGADRILFSTDWPFENIDHAADWFAATSIAEADRVKIGRTNARRLFKLDGR
modifications: Dicamba decarboxylase variant
B5: 582 (protein)
chain: B4 chain with L38M, Q73K, L77I, A119N, R243D, A302N, R328S
modifications: Dicamba decarboxylase variant
B6: 581 (protein)
chain: B4 chain with N19Q, Q73K, R79K, P107V, E112S, G153K, R243D, R328S
modifications: Dicamba decarboxylase variant
B7: 585 (protein)
chain: MAQGKVALEEHFAIPETLQDAAGFVPGDYWKELQHRLMDIQDTRLKEMDKHEIGTMVLSLAAPAVQAIPDRRKAIELAKRANDFLAEEVAKRPDRFLAFAALPMQDPEAATEELQRCVADLGFVGAMVNGFSQEGDGQTPLYYDLPQYRPFWGEVEKLDVPFYLHPRNPLPQDARIYDGHPWLLGPTWAFAQETAVHALRLMASGLFDEHPRLNIILGHMGEGLPYMMYRIDHRIAWVKAPPDYPAKRRFMDYFLENFWITTSGNFRTQTLIDAILEIGADRILFSTDWPFENIDHAADWFAATSIAEADRVKIGRTNARNLFKLDVS
modifications: Dicamba decarboxylase variant
B8: 99 (protein, listed as Ralstonia solanacearum)
chain: MAIIDCHGHFTTAPTALEDWRKRQIANLATPALGPSPDDLKISDDALTEAIRANQLRLMQARGSDLTIFSPRASFMAHHIGDFHTSATWAAICNALCHRVSQLFPDHFVGAAMLPQSPGVDIRTCIPELARCIVDYGFVGVNLNPDPSGGHWTSPPLSDPYWFPLYEKLVEYDVPAMIHVSTSCNACFHTTGAHYLNADTTAFMQVLTSDLFRRFPTLKFVIPHGGGAVPYHWGRFRGLAQELKTPPLQEHLLHNVFFDTCVYHQPGIDLLTRVIPVDNILFASEMIGAVRGIDPETGHPFDDTRRYIDQAHTLSAEDRHKIYEGNARRVYPRLDARLKARGR
B9: 101 (protein, listed as Aquifex aeolicus)
chain: MAQKIALCITGASGVIYGIKLLQVLEELDFSVDLVISRNAKVVLKEEHSLTFEEVLKGLKNVRIHEENDFTSPLASGSRLVHYRGVYVVPCSTNTLSCIANGINKNLIHRVGEVALKERVPLVLLVREAPYNEIHLENMLKITRMGGVVVPASPAFYHKPQSIDDMINFVVGKLLDVLRIEHNLYKRWRG
B10: 97 (protein, listed as Sphingobium sp.)
chain: MAMMIIDCHGHYTVLPKAHDEWREQQKAAFKAGQPAPPYPEISDDEIRETIEANQLRLIKERGADMTIFSPRASAMAPHVGDQSVAVPWAQACNNLIARVVDLFPETFAGVCMLPQSPEADMTSSIAELERCVNELGFIGCNLNPDPGGGHFKHPPLTDRFWYPFYEKMVELDVPAMIHVSGSCNPAMHATGAYYLAADTIAFMQLLQGNLFADFPTLRFIIPHGGGAVPYHWGRFRGLADMLKQPSLDTLLMNNVFFDTCVYHQPGINLLADVIDNKNILFGSEMVGAVRGIDPTTGHYFDDTKRYIDALDISDQERHAIFEGNTRRVFPRLDAKLKARGL
B11: 98 (protein)
chain: MAIIDCHGHYTTAPAAHDAFRKAQIAHHDDPQQPAPQYPHISDDALRESIEQHQLRLLRERGADMTIFSPRASTMAHHIGNEAVSQVWTQRCNDLIARVVQLYPHTFIGVCQLPQSPGVPISHSIAELERCVNELGFVGCNLNPDPSGGHWNGVPLTDRAWYPFFEKMVELDVPAMVHVSGSCNANFHATGAHYLNADTTAFMQFLEGDLFRDFPSLRFIIPHGGGAVPYHWGRFRGLADMLGKPPLATHVMRNVFFDTCVYHQPGIDLLFEVIDIDNILFGSEMVGAVRGIDPQTGHYFDDTKRYIDALTISDADKRKVFEGNARRVYPRLDAQLRARGL
modifications: Xanthomonas campestris pv.
B12: 96 (protein)
chain: MAPLIVDVHTHVYPPAYMQMLRSRKTVPYVHDPSNNRDPRLIILSSDDDASIPLDQRGRPVDSSYWDINVKLSFMRQHGINCSVISLANPWLDFVEPAEAQMWAERINDDLEKTCATVNKAADPGNTLTLDQKETLFAFGALPLSAPSSESVVAEIKRLKTLEHLRGVIMGTSGLGKGLDDARLDPVWEALQETDMLMFLHPHYGLPEEAYGGPETTGRYGHVLPLALGFPLETTIAVTRMLLSGVFDRFPRLKILLAHSGGTLPFLAGRIESCILHERKFISGGGDVQGPQRSVWDVLKTNIYLDAVVYGKPGLEAAMTASGSDRLLFGTDHPFFPPLDSKDNSWPSVTTNYQAIHATFDTNSKTVADVLGGNAARILNLK
modifications: Aspergillus nidulans

Numbering of substitutions follows the chain as printed.

The first test can be described thus: DNA shuffling libraries: 14CO2 capturing assay in 384-well format, fold activity of backbone (Megatable 2). Conditions: relative to backbone SEQ ID NO: 509 (DDEC0810).
For B1, the “Fold Activity” value is on record as 1.0 fold.
On the same count and under the same terms, under B2 stands 1.2 fold.
Same read-out and setting: under B3 stands 0.9 fold.
The same measure, in the same setting: under B4 stands 1.3 fold.
As for B5, the “Fold Activity” value is on record as 1.4 fold.
For B6, the “Fold Activity” value came out at 1.1 fold.
On the same count and under the same terms, under B7 stands 1.8 fold.

A further test is described as follows: Saturation mutagenesis of SEQ ID NO:109: dicamba decarboxylation activity of point mutants (CO2 released), fold of backbone (Tables 7, 8, Megatable 1). Conditions: decarboxylation activity (CO2 released) of point mutant vs unmutated backbone protein; backbone SEQ ID NO: 109.
As for B8, the “Fold Activity” value is given as 1.7 fold.
As to B9, the “Fold Activity” value is on record as 1.8 fold.
The same measure, in the same setting: under B10 stands 2.9 fold.
For B11, the “Fold Activity” value stood at 2.3 fold.
As to B12, the “Fold Activity” value came out at 1.1 fold.
